Test: soluble on expression in E. coli; label from the status in PepcDB or PDB records

Sequence | soluble on expression in E. coli
MLGIHRYDENLPPDELARDYLERTLFVMERVKFHTLAHLDYPARYAKADFKANRDLIEKILVFLVKNEKALEINTAGLFKHGKPNPDYWIVEMYYDLGGRVVTIGSDAHESQHIGRG | soluble
MRLNHNSYEIFDFMRSRSAIGVLSKIIITIPPINLRMIIGVMGPEGSYSERAAKLWARKNGLRGAEFHYFADIEDAFLAAVGGKTDISVVPVENSIEGSVGVTLDLLLENEAVIIGEIVVKIEHCLLSKGEPEKIRVILSHPQGLAQCRHFLKTHFPEAELRSTGSTSHAARLAGEFEEMAAIASPEAAERYGLKILLSNVQDRKENHTRFIVVRGGEKVLSGKIKGKADSGEKLNTVFGRNAEHKLCSETETGTENSSSYAFKTSLIVYLEKDRPGALYEPLGFFAKRGINLTKIESRPSKKELGDYYFYIDLEGNISDVLIKDALEDIKSKASKKSRSSTLKVLGSYPAFKK | not soluble
GMTSTSITAVEYQSKRLESRLLKETREYVIALPEGYAQSLEAYPVVYLLDGEDQFDHMASLLQFLSQGTMPQIPKVIIVGIHNTNRMRDYTPTHTLVLPSGNKGNPQYQHTGGAGRFLDFIEKELAPSIESQLRTNGINVLVGHSFGGLVAMEALRTDRPLFSAYLALDTSLWFDSPHYLTLLEERVVKGDFKQKQLFMAIANNPLSPGFGVSSYHKDLNLAFADKLTKLAPKGLGFMAKYYPEETHQSVSHIGLYDGIRHLFKDFAIDIYSDSFSKQQVIDQYGVLSERFGHKVTPSQQYLEQLIQYSDRQQLTERKQMLEGLRQHFAKD | soluble
MSLMSNDRKVTEIENSPVTEVRPEEHAWYPDDSALAAPPAATPAAISDQLPSDRYLNRELSWLDFNARVLALAADKSMPLLERAKFLAIFASNLDEFYMVRVAGLKRRDEMGLSVRSADGLTPREQLGRIGEQTQQLASRHARVFLDSVLPALGEEGIYIVTWADLDQAERDRLSTYFNEQVFPVLTPLAVDPAHPFPFVSGLSLNLAVTVRQPEDGTQHFARVKVPDNVDRFVELAAREASEEAAGTEGRTALRFLPMEELIAAFLPVLFPGMEIVEHHAFRITRNADFEVEEDRDEDLLQALERELARRRFGSPVRLEIADDMTESMLELLLRELDVHPGDVIEVPGLLDLSSLWQIYAVDRPTLKDRTFVPATHPAFAERETPKSIFATLREGDVLVHHPYDSFSTSVQRFIEQAAADPNVLAIKQTLYRTSGDSPIVRALIDAAEAGKQVVALVEIKARFDEQANIAWARALEQAGVHVAYGLVGLKTHCKTALVVRREGPTIRRYCHVGTGNYNSKTARLYEDVGLLTAAPDIGADLTDLFNSLTGYSRKLSYRNLLVAPHGIRAGIIDRVEREVAAHRAEGAHNGKGRIRLKMNALVDEQVIDALYRASRAGVRIEVVVRGICALRPGAQGISENIIVRSILGRFLEHSRILHFRAIDEFWIGSADMMHRNLDRRVEVMAQVKNPRLTAQLDELFESALDPCTRCWELGPDGQWTASPQEGHSVRDHQESLMERHRSEGHHHHHH | soluble
MGSDKIHHHHHHMGKVYVIGNFKGGVGKTKTVTMLAYESALQLGRKTLVIDLDPQGNATRVLAKTGDLAEITYTVTEAFQEGSLEPAITNISENLDLIPANTAFRNLTKILMTKFPSNEFDQINYLNTLLKPLKEKYDAIYIDVPPTISDFSDNAMLAADYCIIVLQTQELSLDGAQTYIAYMQYLADTYDNDLQVLGIIPCMLRPGGRVDNKVLEQAKELYGGNVLNTVVKYQERLKVYDVEGIKISHNYTGKADGWDVKAHKVFIDVLNELDQHQLVLEELEG | not soluble
MFVLNIFSTTHKQRGLNRASCPPLGNYSNNHTLAYRVKCISEETRDSNSLVSSLNRKLWKTSVAGSDIPMIYSPFLEDMQNTLFASFETVEDYPLSEFLASAQSSKKPARIESWCYQCPKFRKIRLTYLDAGVAAQVFNAVWYPISSLELPILGVDFLSFGGKNVLCVMDFQPLMNDQYYLDKYIQPLHPIRERYADLAGRMSSRFYDENRFFSKELLFGRFDSTKPIYERLFPAFREYLDLYITLAKQTVEDDKSRSIIWQLQCEYDRYSAEKDPAMSLFRSYFGSTWAHRFVYEFLFENSRYESSLDNKT | soluble
MKVISNAEFGGERPLFESHDLRLENVIIRAGESAIKECSNIEAVDCRFEGNYPFWHVHGFVIDRCFFDVGGRSALWYSDNLKMTNTRIDAPKMFREMHDIEIENVEIKDADEVFWRCKNLDIKNLKLHGGTYPFMFSSNIRIDGLESDSKYVFQYVKNVELRNAKITTKDAFWEVENVTIYDSELNGEYLGWHSHNLRLVNCHITGEQPLCYAHDLVLENCTFGPDCDRAFEYSSVQATIKGAIGGVKNPRTGCITAESYGEIILDENIKAPADCKLKLWDEKTCFTD | soluble
MQAKIKNKRVLVKFSGEALAGDNQFGIDIHVLDHIAKEIKSLVENDIEVGIVIGGGNIIRGVSAAQGGIIRRTSGDYMGMLATVINAVAMQEALEHIGLDTRVQSAIEIKEICESYIYRKAIRHLEKGRVVIFGAGTGNPFFTTDTAATLRAIEIGSDLIIKATKVDGIYDKDPNKFKDAKKLDTLSYNDALIGDIEVMDDTAISLAKDNKLPIVVCNMFKKGNLLQVIKHQQGVFSMVKLEHHHHHH | not soluble
MGSDKIHHHHHHMSKSLFPFRFLLPVPVDHYENFPVASWLLPGRLREPVSAIYRFARSADDLADEGDAPPRARLQELARYHSELDRIERGEIPDDPIFGRLAAAIRAHALPLTPFRDLLSAFAQDIEKTRYASFGEVMDYCRRSANPVGRLMLHLYGDHDPRHQAYSDAICSSLQLINFLQDVAIDYAKGRIYLPQDELAAHHVSEAQIAAGDAGGLWRMMMHKQIERARKLLQAGAPLGRALDGRIGLELRVTIRGGETILRKLHADPGCVFGARPVLGKRDWIVMLARSVL | not soluble
MCLEDSDAGASNEYDSSPAAWNKEDFPWSGKVKDILQNVFKLEKFRPLQLETINVTMAGKEVFLVMPTGGGKSLCYQLPALCSDGFTLVICPLISLMEDQLMVLKQLGISATMLNASSSKEHVKWVHAEMVNKNSELKLIYVTPEKIAKSKMFMSRLEKAYEARRFTRIAVDEVHCCSQWGHDFRPDYKALGILKRQFPNASLIGLTATATNHVLTDAQKILCIEKCFTFTASFNRPNLYYEVRQKPSNTEDFIEDIVKLINGRYKGQSGIIYCFSQKDSEQVTVSLQNLGIHAGAYHANLEPEDKTTVHRKWSANEIQVVVATVAFGMGIDKPDVRFVIHHSMSKSMENYYQESGRAGRDDMKADCILYYGFGDIFRISSMVVMENVGQQKLYEMVSYCQNISKCRRVLMAQHFDEVWNSEACNKMCDNCCKDSAFERKNITEYCRDLIKILKQAEELNEKLTPLKLIDSWMGKGAAKLRVAGVVAPTLPREDLEKIIAHFLIQQYLKEDYSFTAYATISYLKIGPKANLLNNEAHAITMQVTKSTQNSFRAESSQTCHSEQGDKKMEAENLYFQSHHHHHHDYKDDDDK | soluble
MGSDKIHHHHHHMKIVKFGGSSLSSGVQIRKVFQIVKSDPERRIVVVSAPGKRFKGDVKITDLLLKLAEAILNEEKTAQIYEQIFLRYQAIGDFFKIPRSGIEQLKEHLYSVAQADYPSNDFFRAALSAQGENMSAHLITLIFKQLGLKARLLTPKEVGLTVSGEARKAQILPGSYAKIAKTKFTDNEVLIFPGFFGITKNGLINTFSRGGSDITGAILARGFGADLYENFTDVDSIYAVNPGLVADPAPIKEMTYNEMRELSYAGFAVFHDEAILPAIQGKIPICVKNTNRPEMPGTKIVPRDKVSHKNKITGIASSHHFQAIYLHRYLINREVGFTAKILKIMADLNISYEHMPSGIDDLTIILDKNQLTNGRKEKLTQRIKDEIQPDDLQWRNDYAIIMVVGEGLVNRVGAMADIVDPIRDAGISLTMVNQGSSEISIMLGVRPEDEQKAVKAIYNDHFENGHPKKELQIPRASFKSVSKSLIANFFV | not soluble
SSTWLSEAEMIALAGLLQMSQGEQTPNCVASSLPSTSCPDPVSVSEDPGPSGDQSCSGTDT | soluble
MADLFDGMKRRMDALIAERFGMKVNINGTDCIVVESDFLAELGPVEGNGKNVVVFSGNVIPRRGDRVVLRGSEFTVTRIRRFNGKPQLTLEENNGGKGA | soluble
TSKFQWTSDFNIGFNRNRVTELYGGKPELKGLKRLEEGRDMDEWYLREWAGVDPANGSPLWYTTDENGKRTTTDSYNKADRVYCGSAAPKFTGGWMNSFSYKGFTLTANFDFVYGNLLYNQSRELLDSDGAYADYNSMKLKSGWKRWEKEGDIATHPKAINGGNKNSNKSSSRYLEKGNYFSLRNLSLGYSIPEKLCGKLGLQRVNVSCSADNLFTLTPFSGVSPQLSDSSTDGYAGTIYPLSRRIVFGLNVSF | not soluble
MSLYNFLGKELKSPLIIGSGPLTYSAAGCKILSDAGAGAVVTKTIRKERAINPAPHMVRNTANALLNNEKWTDFEPEQWIDFEIPQMKRDGTVCIASIGHTIEESSELVEKVANAGADFIELVSYDYRDLIPMLKDAKERVNIPVIVKLPPMIDEIGDFAKKLEEAGADAITACDSVGPAFRIDIETGQPLLGGNGIGYLSGETIKPITLQRIYEIKKQVNIPIIGLGGCVSGDDALEMIMAGADFVGICSVVILKGAQVISKIHDDLKSNLNRLGYNTIENACGIVHNHMGDVNEREGHHHHHH | soluble
MSLGDITISFESSDIDRHLILGVDWLIEGNLYEDAVESSIALSRRFLLNGKVKSLEMFLDEKPIDDLLKNYQLSKIHEMDVDSTEDTSVLEIQQYRYLINIFKQYMEWEKTVKLLNSESNIPSIIEKFQEFFQSTFKLIKTFLVDLTENIDHKDHDILFEIRALYTPYLIMELHKGLVEAASLLRIPRFIKDALNITNLVANEDDKIYLLFQSSGKLKEYLQLVAQTATLTEGHHHHHH | soluble
MSLSRQIRYYGTGTQKAYDELKQVLPEARILRMDVDTTKRKGAHEKILTKFGRHEADILLGTQMIAKGLDFPNVTLVGVLNADTSLNLPDFRSSERTFQLLTQVAGRAGRANKPGEVLIQTYNPNHYAIQLAREQDYEAFYRYEMRIRKALSYPPYYFTVGLTLSHKDEQEVIKKSYEIVTLIKEGLTDKIKILGPTPKPVARTHNLYHYQIIIKYRFEDQLEIVLNHILDLTQAKENKKLRLIIDHEPQSEGHHHHHH | not soluble
MSLKWLKKQAELYPQKQFLNDSTFAQINQEVNKMAEHLAPLIDNQSRVALLSENSVEMAVVLFALLGLSKEVLLLNRHLTEYELADQIKELKIDKVFTSDLLTEKVTDSISFSEIWTSNPCPVSLSADFPDEKIAVIMNTSATTGKFKSVPITWGMISNHVKASKETLGAYDNDNWLVILPMFHVSGLSIIMRTLYNATSATVVDKFDENQLLEMINSGKINMVSLVPTLLTRIADKLHSNNLRLILLGGEFIPQPLIKKCQELGLPIYKTYGMTESFSQSVTFNILDFPDKTSSVGRPLPGVEIEIRQADLAGVGEIWLKSPMLMKAYLGQKPYGTAFETGDIGYLDTDGFLYLLNRRKDIIISGGENIYPKEIEDLVYSLPEIKECALVAKPDAKWGQVPILFVSGNISQEKLENFLTEKLAKYKRPQSITFMDELPKNASGKILRKELKEGHHHHHH | soluble
MHKPCAVIPVYNHETAVPAVVEVLLARGLPCVLVDDASSPQCAAVLEQLAGLDQVFLIRLAINQGKGGAVMAGLREAAQLGFSHALQVDADGQHDLTDVDNFIQHSQAHPEALVCGYPQYDASVPKGRLYARYLTHVWVWINSLSLQIPDSMCGFRVYPLPPTLALLDSVQLGRRMDFDPEILVRLAWRNQPMRWLPTRVHYPQDGLSHFRLFHDNALISKMHAKLFFGMLARLPLILWRRWRPLEHHHHHH | not soluble
MERIALFIDGANVYAAAKRLGWNFDHRKILEHFAGLGALYNAFYYTAVPWPVDDKQKRFVDALTYMGYTVRTRPLRENTDENGDTSRRASLDIELVTDLLTTESRYDVAVLLSGDGDFERPVEVLRARGKKVIVASIPEMTSAELRNAADEYVDLASIREQVERPGYRLPSEGSGR | not soluble

Reference: the DeepSol protein solubility set
